# Measured values from patent US20230416363A1 (KADMON, published 2023).
# B1: 33C4 (antibody, V domains shown)
# VH: QVQLVQSGAEVKKPGSSVKVSCKASGGTFSSSVISWVRQAPGQGLEWMGGIIPIFGTANYAQKFQGRVTITADESTSTAYMELSSLRSEDTAVYYCAREGLGCSGGSCYSGYYYGMDVWGQGTTVTVSS
# VL: DIVMTQSPLSLPVTPGEPASISCRSSQSLLHSNGYNYLDWYLQKPGQSPQLLIYEASSLHTGVPDRFSGSGSGTDFTLKISRVEAEDVGVYYCMQGSHWPYTFGQGTKLEIK
# notes: also called 780_39
# B2: m3A7 (antibody, V domains shown)
# VH: QVQLVQSGAEVKKPGASVKVSCKASGHTFTSYYIHWVRQAPGQGLEWMGIINPSGGSTSYAQKFQGRVTMTRDTSTSTVYMELSSLRSEDTAVYYCARDRAYGGAGDYWGQGTLVTVSS
# VL: DIQMTQSPSSLSASVGDRVTITCRASRSISNWLAWYQQKPGKAPKLLIYAASSLQSGVPSRFSGSGSGTDFTLTISSLQPEDFATYYCQQSYSAPVTFGQGTKVEIK
# notes: R3A9 derivative; also called 7115C
# B3: RMP1-14 (antibody, V domains shown)
# VH: EVQLQESGPGLVKPSQSLSLTCSVTGYSITSSYRWNWIRKFPGNRLEWMGYINSAGISNYNPSLKRRISITRDTSKNQFFLQVNSVTTEDAATYYCARSDNMGTTPFTYWGQGTLVTVSS
# VL: DIVMTQGTLPNPVPSGESVSITCRSSKSLLYSDGKTYLNWYLQRPGQSPQLLIYWMSTRASGVSDRFSGSGSGTDFTLKISGVEAEDVGIYYCQQGLEFPTFGGGTKLELK
# How the values were obtained:
# hPD-1-his [1] = molecular target: T1, hPD-1-his (human, UniProt Q15116 25-167); test: SPR Biacore T200, PD-1-his immobilised
# T1 construct: domain: IgV domain; monomer in solution; biotin-labelled where captured by streptavidin; also called biotin-hPD-1-his
# T1 sequence (Q15116 other isoform, or with tags, fused parts or gaps limits assumed): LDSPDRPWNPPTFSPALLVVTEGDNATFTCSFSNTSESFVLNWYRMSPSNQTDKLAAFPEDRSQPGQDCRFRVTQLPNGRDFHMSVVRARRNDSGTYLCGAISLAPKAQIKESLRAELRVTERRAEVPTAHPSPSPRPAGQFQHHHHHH
# [2] = molecular target: T2, human PD-1 expressed on cells (human, UniProt Q15116 25-288); test: flow cytometry, SEB-activated PBMC donor two
# T2 construct: whole, on cells
# T2 sequence (Q15116 25-288): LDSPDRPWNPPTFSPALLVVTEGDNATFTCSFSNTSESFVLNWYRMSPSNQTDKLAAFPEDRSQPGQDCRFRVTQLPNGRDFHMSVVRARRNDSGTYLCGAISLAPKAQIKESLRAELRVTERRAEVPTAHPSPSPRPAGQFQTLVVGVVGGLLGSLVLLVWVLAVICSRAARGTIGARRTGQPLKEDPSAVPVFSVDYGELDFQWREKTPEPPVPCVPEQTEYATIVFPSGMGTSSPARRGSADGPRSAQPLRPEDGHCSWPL
# hPD-1-Fc [3] = molecular target: T3, hPD-1-Fc (human, UniProt Q15116 25-167); test: blocking ELISA, PD-1 to PD-L2
# T3 construct: domain: IgV domain; also called human PD-1-Fc; not shown: human IgG1 Fc
# T3 sequence (Q15116 25-167 limits assumed): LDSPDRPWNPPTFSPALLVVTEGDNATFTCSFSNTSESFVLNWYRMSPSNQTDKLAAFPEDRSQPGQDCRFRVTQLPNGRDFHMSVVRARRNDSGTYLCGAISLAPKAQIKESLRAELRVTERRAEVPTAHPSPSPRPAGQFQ
# hPD-1-his [4] = molecular target: T1, hPD-1-his; test: ELISA, biotin-PD-1-his on streptavidin
# hPD-1-his [5] = molecular target: T1, hPD-1-his; test: ELISA, biotin-hPD-1-his on streptavidin
# [6] = molecular target: T2, human PD-1 expressed on cells; test: flow cytometry, hPD-1-Jurkat cells
# [7] = molecular target: T2, human PD-1 expressed on cells; test: flow cytometry, SEB-activated PBMC donor
# [8] = molecular target: T2, human PD-1 expressed on cells; test: flow cytometry, activated PBMC donor FA
# hPD-1-Fc [9] = molecular target: T3, hPD-1-Fc; test: SPR, Exp. 2
# hPD-1-his [10] = molecular target: T1, hPD-1-his; test: SPR, Exp. 2
# hPD-1-his [11] = molecular target: T1, hPD-1-his; test: SPR, Exp. 4
# hPD-1-Fc [12] = molecular target: T3, hPD-1-Fc; test: ELISA, hPD1-Fc coated
# hPD-1-Fc [13] = molecular target: T3, hPD-1-Fc; test: SPR, Exp. 3
# hPD-1-his [14] = molecular target: T1, hPD-1-his; test: SPR, Exp. 3
# hPD-1-Fc [15] = molecular target: T3, hPD-1-Fc; test: SPR Biacore T200, PD-1-Fc immobilised
# hPD-1-Fc [16] = molecular target: T3, hPD-1-Fc; test: blocking ELISA, PD-1 to PD-L1
# [17] = molecular target: T2, human PD-1 expressed on cells; test: flow cytometry, hPD-1-293 cells
# hPD-1-Fc [18] = molecular target: T3, hPD-1-Fc; test: SPR, range over experiments
# hPD-1-Fc [19] = molecular target: T3, hPD-1-Fc; test: SPR, Exp. 1
# hPD-1-his [20] = molecular target: T1, hPD-1-his; test: SPR, Exp. 1
# hPD-1-Fc [21] = molecular target: T3, hPD-1-Fc; test: blocking ELISA, hPD-1-Fc to hPD-L1-Fc
# [22] = molecular target: T2, human PD-1 expressed on cells; test: cell-based or functional assay
# hPD-1-his [23] = molecular target: T1, hPD-1-his; test: ELISA, hPD-1-his on anti-his
# hPD-1-Fc [24] = molecular target: T3, hPD-1-Fc; test: ELISA, PD-1-Fc coated
# hPD-1-his [25] = molecular target: T1, hPD-1-his; test: ELISA, PD-1-his on anti-his
# [26] = molecular target: T2, human PD-1 expressed on cells; test: flow cytometry, hPD1-293 cells
# [27] = molecular target: T2, human PD-1 expressed on cells; test: flow cytometry, hPD1-Jurkat cells
# [28] = molecular target: T2, human PD-1 expressed on cells; test: flow cytometry, activated PBMC donor two
# mPD-1-his [29] = molecular target: T4, mPD-1-his (mouse, UniProt Q02242 25-167, limits assumed); test: SPR Biacore, mPD1-his
# T4 construct: domain: IgV domain
# T4 sequence: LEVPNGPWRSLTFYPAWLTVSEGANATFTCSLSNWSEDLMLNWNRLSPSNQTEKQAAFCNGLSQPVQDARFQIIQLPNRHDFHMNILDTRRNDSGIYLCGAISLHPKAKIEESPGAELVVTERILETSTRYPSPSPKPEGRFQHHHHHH
# mPD-1-his [30] = molecular target: T4, mPD-1-his; test: SPR Biacore, mPD1-his (second m3A7 row)
# [31] = molecular target: T5, mouse PD-1 expressed on cells (mouse, UniProt Q02242 25-288); test: cell-based or functional assay
# T5 sequence (looked up): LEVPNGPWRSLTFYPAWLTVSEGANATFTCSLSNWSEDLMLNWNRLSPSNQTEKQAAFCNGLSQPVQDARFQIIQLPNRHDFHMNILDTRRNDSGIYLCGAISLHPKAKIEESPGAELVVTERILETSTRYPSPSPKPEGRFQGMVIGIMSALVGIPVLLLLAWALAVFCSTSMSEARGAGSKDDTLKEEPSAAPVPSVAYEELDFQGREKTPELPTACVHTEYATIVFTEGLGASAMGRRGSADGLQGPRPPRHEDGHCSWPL
# hPD-1-Fc [32] = molecular target: T3, hPD-1-Fc; test: SPR Biacore, hPD1-Fc
# [33] = molecular target: T5, mouse PD-1 expressed on cells; test: flow cytometry, mPD-1-293 cells
# [34] = molecular target: T5, mouse PD-1 expressed on cells; test: cell-based or functional assay; remark: listed apart in the source
# [35] = molecular target: T6, mPD1 (soluble, ELISA of Examples 20 and 24) (mouse, UniProt Q02242 25-167, limits assumed); test: ELISA, biotin-mPD1 on streptavidin
# T6 construct: also called Biotin-mPD1
# T6 sequence (looked up): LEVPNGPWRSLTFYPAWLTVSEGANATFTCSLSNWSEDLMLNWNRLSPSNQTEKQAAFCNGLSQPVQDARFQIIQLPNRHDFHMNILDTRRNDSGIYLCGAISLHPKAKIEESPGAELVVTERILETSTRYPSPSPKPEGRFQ
# [36] = molecular target: T5, mouse PD-1 expressed on cells; test: flow cytometry, mPD1-eff cells
# [37] = molecular target: T7, hPD1 (soluble, ELISA of Example 20) (human, UniProt Q15116 25-167, limits assumed); test: blocking ELISA, hPD1 to hPDL1
# T7 sequence (Q15116 25-167 limits assumed): as the sequence (Q15116 25-167 limits assumed) above
# [38] = molecular target: T6, mPD1 (soluble, ELISA of Examples 20 and …); test: ELISA, mPD1
# mPD-1-his [39] = molecular target: T4, mPD-1-his; test: ELISA, mPD-1-his on streptavidin
# mPD-1-Fc [40] = molecular target: T8, mPD-1-Fc (mouse; human, UniProt Q02242 25-167, limits assumed); test: blocking ELISA, mPD-1 to PD-L1
# T8 construct: domain: IgV domain; not shown: human IgG1 Fc
# T8 sequence (looked up): T6 sequence (looked up)
# [41] = molecular target: T5, mouse PD-1 expressed on cells; test: flow cytometry, mPD1-293 cells
# mPD-1-Fc [42] = molecular target: T8, mPD-1-Fc; test: ELISA, mPD-1-Fc
# mPD-1-Fc [43] = molecular target: T8, mPD-1-Fc; test: ELISA, mPD-1-Fc on streptavidin
# mPD-1-Fc [44] = molecular target: T8, mPD-1-Fc; test: SPR Biacore, mPD1-Fc
# [45] = molecular target: T7, hPD1 (soluble, ELISA of Example 20); test: ELISA, hPD1
# [46] = molecular target: T6, mPD1 (soluble, ELISA of Examples 20 and …); test: blocking ELISA, mPD1 to mPDL1
# hPD-1-Fc [47] = molecular target: T3, hPD-1-Fc; test: SPR Biacore, hPD1-Fc (second m3A7 row)
# mPD-1-Fc [48] = molecular target: T8, mPD-1-Fc; test: SPR Biacore, mPD1-Fc (second m3A7 row)
binder,measurement,setting,value
B1,Kd,hPD-1-his [1],6.73 nM
same,"MFI, 5 nM",[2],66.9 MFI
same,IC50,hPD-1-Fc [3],3.3 nM
same,"Inhibition, % at 3.7 nM",hPD-1-Fc [3],53.4%
same,"Inhibition, % at 100 nM",hPD-1-Fc [3],94.6%
same,EC50,hPD-1-his [4],0.131 nM
same,EC50,hPD-1-his [5],0.209 nM
same,OD450 at 10 nM,hPD-1-his [5],0.95 OD450
same,"MFI, 5 nM",[6],65.2 MFI
same,"MFI, 5 nM",[7],77.8 MFI
same,EC50,[8],0.041 nM
same,MFI at 25 nM,[8],17.6 MFI
same,Kd,hPD-1-Fc [9],< 0.01 nM
same,Kd,hPD-1-his [10],0.205 nM
same,Kd,hPD-1-his [11],< 0.054 nM
same,EC50,hPD-1-Fc [12],0.177 nM
same,OD450 at 10 nM,hPD-1-Fc [12],0.925 OD450
same,Kd,hPD-1-Fc [13],< 0.01 nM
same,Kd,hPD-1-his [14],0.274 nM
same,Kd,hPD-1-Fc [15],0.575 nM
same,IC50,hPD-1-Fc [16],2.77 nM
same,Inhibition % at 50 nM,hPD-1-Fc [16],93.3%
same,"Inhibition, % at 5.56 nM",hPD-1-Fc [16],88.9%
same,"MFI, 5 nM",[17],179 MFI
same,Kd,hPD-1-Fc [18],0.01 to 0.02 nM
same,Kd,hPD-1-Fc [19],< 0.022 nM
same,Kd,hPD-1-his [20],0.704 nM
same,IC50,hPD-1-Fc [21],2.06 nM
same,Inhibition % at 5.6 nM,hPD-1-Fc [21],91.2%
same,Inhibition % at 50 nM,hPD-1-Fc [21],92.5%
same,"EC50, Promega blockade bioassay",[22],0.165 µg/mL
same,Fold induction,[22],6.24 fold
same,EC50,hPD-1-his [23],0.061 nM
same,OD450 at 10 nM,hPD-1-his [23],0.578 OD450
same,EC50,hPD-1-Fc [24],0.128 nM
same,EC50,hPD-1-his [25],0.142 nM
same,EC50,[26],0.075 nM
same,MFI at 5 nM,[26],48.2 MFI
same,EC50,[27],0.084 nM
same,MFI at 5 nM,[27],98.3 MFI
same,EC50,[28],0.05 nM
same,MFI at 25 nM,[28],18.7 MFI
B2,Kd,mPD-1-his [29],3.03 nM
same,koff,mPD-1-his [29],0.000823 s⁻¹
same,kon,mPD-1-his [29],272000 M⁻¹ s⁻¹
same,Kd,mPD-1-his [30],1.98 nM
same,koff,mPD-1-his [30],0.000479 s⁻¹
same,kon,mPD-1-his [30],241000 M⁻¹ s⁻¹
same,"IC 50, Promega assay",[31],0.0709 µg/mL
same,Kd,hPD-1-Fc [32],103 nM
same,koff,hPD-1-Fc [32],0.0176 s⁻¹
same,kon,hPD-1-Fc [32],171000 M⁻¹ s⁻¹
same,EC50,[33],0.228 nM
same,"IC50, Promega blockade bioassay",[34],0.561 nM
same,EC50,[35],0.268 nM
same,EC50,[36],0.27 nM
same,IC50,[37],37.8 nM
same,EC50,[38],0.349 nM
same,EC50,mPD-1-his [39],0.251 nM
same,IC50,mPD-1-Fc [40],0.102 nM
same,EC50,[41],0.609 nM
same,EC50,mPD-1-Fc [42],0.834 nM
same,EC50,mPD-1-Fc [43],0.187 nM
same,Kd,mPD-1-Fc [44],2.53 nM
same,koff,mPD-1-Fc [44],0.000659 s⁻¹
same,kon,mPD-1-Fc [44],261000 M⁻¹ s⁻¹
same,EC50,[45],0.63 nM
same,IC50,[46],0.537 nM
same,Kd,hPD-1-Fc [47],19.9 nM
same,koff,hPD-1-Fc [47],0.00263 s⁻¹
same,kon,hPD-1-Fc [47],132000 M⁻¹ s⁻¹
same,Kd,mPD-1-Fc [48],1.86 nM
same,koff,mPD-1-Fc [48],0.000406 s⁻¹
same,kon,mPD-1-Fc [48],219000 M⁻¹ s⁻¹
B3,IC50,mPD-1-Fc [40],0.635 nM
